{"source": "the nanobody polyreactivity screen of Harvey et al. (2022)", "data": [{"experiment": "yeast display, Sf9 membrane polyspecificity reagent, FACS + sequencing; frameworks hold sequencing errors", "method_in_brief": "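Synthetic nanobody libraries on Saccharomyces cerevisiae BJ5465 were galactose-induced for 36–48 hours, stained 1 hour at 4 °C with 10% biotinylated, detergent-solubilized Sf9 membrane reagent and enriched on streptavidin microbeads. FACS then separated cells into low and high (top ~1%) gates by anti-HA (expression) and streptavidin (reagent binding) fluorescence. Genes were colony-PCR amplified, MiSeq 2 × 250 sequenced and CDR-length filtered. A clone's polyreactivity label is that of its gate of origin.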", "values": [{"sequence": "QVQLGDSGGGLVQAGGSLRLSCAPSGSIFQRYAMGWYRLAPGKERELVAAISYNGGSTYYADSVKGRFTISRDNAKNTVYLQMNSLKPEDTAVYYCAARGYRKTRFDYWGQGTKVTVSS", "polyreactivity (PSR sort gate)": "high polyreactivity"}, {"sequence": "QVQLVESGGGLVQAGGSLRLSCAASGFTFSIYAMGWSRQAPGKERELVAAIRSSTASTYYADSVKGRFTISRDNAKNTVYLQMNSMKPEDTAVYYCAADTYRTRHIGVKFAFNSWGQGTQVTVSS", "polyreactivity (PSR sort gate)": "high polyreactivity"}, {"sequence": "QVQLVESGGGLVQAGGSLRLSCAASGFTFLYYDMGWYRPAPGKERELVAAITSSGTSTYYADSVKGRFTISRDNAKNSVYLQMNSLKPEDTAVYYCAVLYTYAGRHRYGYWGQGTQVTVSS", "polyreactivity (PSR sort gate)": "high polyreactivity"}, {"sequence": "QVQLVESGGGLVQAGGSLRLSCAASGYIFYDNAMGWYRQAPGKERELVAAISASGGDTYYADSVKGRFTISRDNAKNTVYLQMNSLKPEDTAVYYCAADLITYAMEYWGQGTEVTVSS", "polyreactivity (PSR sort gate)": "low polyreactivity"}, {"sequence": "QVQLVESGGGLDQAGGSLRLSCAASGSTFKPNVMGWYRQAPGEERELVAAISSRGGRTYYADSVKGRFTISRDNEKNNVYLQMNRLKPEDTAVYYCAALYLATGVDKAFDSWGQGTQVTVSS", "polyreactivity (PSR sort gate)": "high polyreactivity"}, {"sequence": "QVQLQESGGGLVQAGGSLRLSCAASGPISRRSNMGWYRQSPGKESELVTAITRGTNTNYADSVKGRFTISRDNAKYTEYLQMNSLNPEDTAVYYCADYGVLKPSRGDAVFNRYWGQGTQVTVSS", "polyreactivity (PSR sort gate)": "low polyreactivity"}, {"sequence": "QVQLVESGGGLVQAGGSLRLSCAASGRTFLVFAMGWYRQAPGKERELVAAITRDDNTNYADSVKGRFTISRDNAKNTVYLQMNSLKPEDTAVDYCAADALVYRLGNYYFIFDYWGQGTEVTVSS", "polyreactivity (PSR sort gate)": "low polyreactivity"}, {"sequence": "QVQLVESGGGLVQAGGSLRISCAASGLTFGKYAMGWYRQEPGKERELVAAISWSVTSTYYADSVKGRFTISRDNAKNTVYLQMNSLKPEDTAVYYCAAEIIKLAYRVAYYYWGQGTQVTVSS", "polyreactivity (PSR sort gate)": "high polyreactivity"}, {"sequence": "QVQLVESGAGLVQAGGSLRLSCAASGSTFRPNVMGWSRQAPGKERELVAAITYSGRSTYYADSVKGRFTISRDNAKNTVYLQMNTLKPEDTAVYYCAARTWLRYCYWGQGTQVTVSS", "polyreactivity (PSR sort gate)": "high polyreactivity"}, {"sequence": "QVQLVESGGGLVQAGGSLRLSCAASGRTFSSNAMGWYRQAPGKEREFVAVISSGGSTYYADSVKGRFTISRDNAKNTVYLQMNSLKPEDTAVYYCAAAVGPSGYYYESDYWGQGTQVTVSS", "polyreactivity (PSR sort gate)": "high polyreactivity"}, {"sequence": "QVQLVESGGGLVQAGGSLRLSCAASGLTFVANAMGWYSQAPGKERELVARISSSGGSTYYADSVKGRFTISRDNAKNTVYLQMNSLKPEDTAVYYCASSQSGGYDYWGQGTQVTVSS", "polyreactivity (PSR sort gate)": "high polyreactivity"}, {"sequence": "QVHLVESGGGLFQAGGSLRLSCAASGRTFYYNAMGWYRQAPGKEREFVAAITWSGTRTYYADSVKGRFTISRDNAKNTVYLQMNSLKPEDTAVYYCNARAGSGSRFGYWGEGTQVTVSS", "polyreactivity (PSR sort gate)": "high polyreactivity"}, {"sequence": "QVQLVESGGGLVQAGGSLGLSSAASGRTFGVYAMGWYRQAPGKERELVAGIRWRGGSTYYADSVKGRFTISRDNAKNTVYLQMNSLKPEDTAVYYCAADVYLVKYDYWGQGTQVTVSS", "polyreactivity (PSR sort gate)": "low polyreactivity"}, {"sequence": "QVQLVESGGGLVQAGGSLRLSCAASGRIFSLYAMGWYRQAPGKERELVAGITWRGGSTYYADSVKGRFTISRDNAKNTVYLQMNSMKPEDTAVYYCAARPWNWRDYDYWGQGTQVTVSS", "polyreactivity (PSR sort gate)": "high polyreactivity"}, {"sequence": "QVQLVESGGGLVQAGGSLRLSCAASGFIFPWYAMGWYRQAPGKERELVAAISWSGGSTYYADSVKWRFTISRDNAKNTVYLQMNSLKPEDTAVYYCNDLYGRPGYDYWGQGTQVTVSS", "polyreactivity (PSR sort gate)": "low polyreactivity"}, {"sequence": "QVQLVESGGGLVQAGGSLRLSCAATGRTFRPYAMGWYTQAPGKEREMVDAIDSSGTSTYYADSVKGRFTISRDNAKKTVYLQMNSQKPEDTAVYYCAKAWPDHWYSRYDYWGQGTQVTVSS", "polyreactivity (PSR sort gate)": "low polyreactivity"}, {"sequence": "QVQLVESGGGLVQAGGSLRLSCADSGSIFAYYAMGWYRQAPGKERELVADITSSGGITYYADSVKGRFTISRDNAKNTVYLQMNSLKPEDTAVYYCNADSLAIVGGSYPYDYWGQGTQVTVSS", "polyreactivity (PSR sort gate)": "low polyreactivity"}, {"sequence": "QVQLVESGGRIDQAGGRLRLSCAASGSIFDWYAMGWYRQAPGKERELVAAIDSSGSSTYYADSVKGRFTISRDNAKNTVYLQMNSLIPEDTAVYYCAADSDWIRYWFGSLYGSDYWGQGTQVSVSS", "polyreactivity (PSR sort gate)": "low polyreactivity"}, {"sequence": "QVQLVESGGGLVQAGGSLRLSCAATGNTFLWYARGWYRQAPGKERELVAAITWSGGRTYYADSVKGRFTISRDNALYTVYLQMHSLKPEDTAVYYFAADYGYFLGGVYFHKVKFDYWGQGTQVTVSS", "polyreactivity (PSR sort gate)": "high polyreactivity"}, {"sequence": "QVQLVESGGGLVQAGGSLRLSCAASGSIFIPYAMGWYRQAPGKERDLVAAIRYSGASTYYADSVKGRFTISRDNAKNTVFLQMNSLKPEDTAVYYCAARVVDQEVGRPYYYWGQGTQVTVSS", "polyreactivity (PSR sort gate)": "high polyreactivity"}, {"sequence": "QVQLVESGGGLVQAGGSLRLSCAASGLIYYRYAMGWYRQAPGKERELVAAITTNGARTYYADSVKGRFTISRDNAKNTVYLQMNSLKPEDTAVYYCAAYGAGKFWAEHNYWGQGTQVTVSS", "polyreactivity (PSR sort gate)": "high polyreactivity"}, {"sequence": "QVQLVESGGGLVQAGGSLRLSCAASGSTFNNNAMGWYRQAPGKERELVAAISYTGGSTYYADSVKGRFTISRDIAKYTVYLQMNSLKPEDSAVYYCARRQARKFYYWGQGTQVTVSS", "polyreactivity (PSR sort gate)": "high polyreactivity"}, {"sequence": "QVQLVESGGGLVQAGGSLRLSCAASGSIFSNYAMGWYRQAPGKERELVAAITWSGDDTYYADSVKGRFTISRDNAKTTVYLQMNSLKPVDTAVYYCAAEYHGYRYNYYPYSHYFIYESWGQGTQVTVSS", "polyreactivity (PSR sort gate)": "high polyreactivity"}, {"sequence": "QVQLVESGGGLVQAGGSLRLSCAASGFILGLNALGWYRHAPGKAWEFVADISWSGDSTYYADSVKGRFTISRDNAKNTVYLQMNSRKPEDTAVYYCPAVWYTSRQKYDYWGQGTQGTVSS", "polyreactivity (PSR sort gate)": "low polyreactivity"}, {"sequence": "QVQLVESGGGLVQAGGSLRLSCAASGRTFFYYSMGWYIQAPGKEREFVSGISKSGSSTYYADSVKGRFTISRDNPKNTVYLQLISLKPEDTADSYCAAVSKRGAGGRRTEYWGQGTQVTVSA", "polyreactivity (PSR sort gate)": "high polyreactivity"}, {"sequence": "QVQLVESGGGLDQAGGSLRLSCAASGSLFARNTMGGYRQAPGKERELVATITARGGSTYADSVKGRFTISRDNAKNTVYLQMNSLKPEDTAVYYCNADYGLFSRATFYGYDYWGQGTQVTVSS", "polyreactivity (PSR sort gate)": "low polyreactivity"}, {"sequence": "QVQLVESGGGLVQAGGSLRLSCAASGRIFTRYAMGWYRQAPGKERELVAAITGSGGSTYYADSVKGRFTISRDNAKNTVYLQMNSLKPEDTAVYYCNKVTGRNADRYGYWGQGTQVTVSS", "polyreactivity (PSR sort gate)": "high polyreactivity"}, {"sequence": "QVQLVESGGGLVQAGGSLRLSCAASGRTFRLYAMGWYIQAPGKERELVAAISSTGSTYYADSVKGRFTISLDNAKNTVYLQMNSLKPEDTAVYYCNAKLPVTSLKFDYYYWGQGSQVTVSS", "polyreactivity (PSR sort gate)": "high polyreactivity"}, {"sequence": "QVQLVESGGGLVQAGGSLRISCAASGFIFVRYAMGWYRQAPGKEREFVAVISRRGGSTHYADSVKGRFTISRDNAKNTVYLQMNSLKPEDTAVYYCAAVRRVYSQNDYWGQGSQVTVSS", "polyreactivity (PSR sort gate)": "high polyreactivity"}, {"sequence": "QVQLVESGGGLVQAGGSLRLSCAASGSTLSVYVMGWYSQAPGKERELVAAITRGGSTNYADSVKGRFTISRDNAKNTVYLQMISLKPEDTAVYYCAARAFVYYHHGEGSRSGRYYYWGQGTQVTVSS", "polyreactivity (PSR sort gate)": "high polyreactivity"}, {"sequence": "QVQLVESGGGLVQAGGSLRLSCAASGSTFSPNAMGWYRQAPGKERELVAAITGGGSTYADSVKGRFTISRDNAKNTVYLQMNSLKPEDTAVYYCNRDYRSDLGYADQSWTDQYDYWGQGTQVTVSS", "polyreactivity (PSR sort gate)": "low polyreactivity"}, {"sequence": "QVQLVESGGGLVQAGGSLRLSCAASGSTFVIYTMGWYRQAPVKERELVAAISWSGGITRYADSVKGRFTISRDNAKNTVYLQMNSLKPEDTAVYYCNASQWPSRFDYWGQGTQVTVSS", "polyreactivity (PSR sort gate)": "low polyreactivity"}, {"sequence": "QVQLVESGGGLVQAGGSLRLSCPASGRTFSRNAMGRYRQAPGKERELVATISRRGGSTNYADSVKGRFTISRDNAKNTVYLQMNSLIPEDTAVYYCAAGYRVRDDKVYGIVGAMDYWGQGTQVTVSS", "polyreactivity (PSR sort gate)": "high polyreactivity"}, {"sequence": "QEQLVESGAGLVQAGGSLRLSCAASGSIFTLYGMGRYRQAPGKERELVAAITWSGGRTYYADSVKGRFTISRDNAKNTVYLQMNSLKPEDTAVYYCAAYRYVSWYYPDDYWGQGTQVTVSS", "polyreactivity (PSR sort gate)": "high polyreactivity"}, {"sequence": "QVQLVESGGGLVQAGGSLRLSCAASGRIFSYYAMGWYRQAPGKERELVAVISRRGDNTYYADSVKGRFTISRDNAKNTVYLQMNSLKPEDTAVYYCAVQFVFIFYYGYDYWGQGTQVTVSS", "polyreactivity (PSR sort gate)": "high polyreactivity"}, {"sequence": "QVQLVESGGGLVQAGGSLRLSCAASGYTLFRNAMGWYRQAPGKERELVAAISRSGARTYYADSVKGRFTISRDNAKTTVYLQMNSLKPDYTAVYYCAAVIKWTKDDYWGQGTQVTVSS", "polyreactivity (PSR sort gate)": "high polyreactivity"}, {"sequence": "QVQLVESGGGLVQAGGSLRLSCAASGFIFGLNAMGWYRQAPGKERELVAVIAFSGGSTYYADSVKGRFTISRDNAKNTVYLQMNSLKPEDTAVYYCNAVTRYPHPREYDYWGQGTQVTVSS", "polyreactivity (PSR sort gate)": "high polyreactivity"}, {"sequence": "QVQLGESGGGLVQAGGSLRLSCAASARNSSFYEMGWYRQAPGKGSELVAAINWDDGTTYYADSVMGRFTISRDNAQNNVYFQKNSLNPEDTAVYYCAVEGFSSAAYDFEYWGQGSQVTVSS", "polyreactivity (PSR sort gate)": "high polyreactivity"}, {"sequence": "QVQLVESGGGLVQAGGSLRLSCAASGFTFRKYTMGWYRQAPGKERELVAAITNSGTSTYYADSVKGRFTISRDNAKNTVYLQMNSLKPEDTAVYYCARDNEPDYYSYPYDYWGQGTQVTVSS", "polyreactivity (PSR sort gate)": "low polyreactivity"}, {"sequence": "QVQLVESGGGLVQAGGSLRLSCAASGIIFTINAMGWYRQAPGKERELVAAISGRGARTYYADSVKGRFTISRDNAKNTVYLQMNSLKPEDTAVYYCNAANSRLHGSDYWGQGTQVTVSS", "polyreactivity (PSR sort gate)": "high polyreactivity"}, {"sequence": "QVQLVESGGGLVQAGGSLRLSCAASGSTFNGYAIGWYRQAPGKERELVAAITWSGDSTYYADSVKGRFTISRDNAKNTVYLQMNSLKPEDTAVYYCAADDVKWDYDYWGQGTQVTVSS", "polyreactivity (PSR sort gate)": "low polyreactivity"}, {"sequence": "QVQLVESGGGLVQAGGSLRLSCAASGRTFLWYAMGWYRQAPGKEREFVAAITKSSGSTYYADSVKGRFTISRDNAKNTVFLQMNSLKPEDNAVYYCAKRPFSTRYDYWGQVTQVTVSS", "polyreactivity (PSR sort gate)": "high polyreactivity"}, {"sequence": "QVQLVESGGGLVQAGGSLRLTCAASGSIFRVYAMGWYRQAPGKERELVAVISIAGRTNYADSVKGRFTISRDNAKNTVYLQMNSLKAEDTAVYYCNAGGVGVATGYDYWGQGTQVTVSS", "polyreactivity (PSR sort gate)": "low polyreactivity"}]}]}
